According to patent US7981863B2, “Treatment of Parkinson's disease with PDGF” (Neuronova AB, priority 2001, dated 2011):

Key:
Healthy Rats = assay: ICV infusion in healthy rats, BrdU / NeuN labelling; type: in vivo, rat
Method: Male rats (12 hours light/dark regime; feeding and drinking ad libitum; 5 animals in standard cage) were infused (Alzet minipumps) in the left lateral ventricle with human recombinant PDGF-BB for 7 days at a daily dose of 36 ng/day (8 animals/group). Human recombinant BDNF (brain derived neurotrophic factor) was used as a positive control (Pencea V et al., J. Neurosci Sep. 1 (2001), 21(17):6706-17). Bromodeoxyuridine (BrdU) was also included in the infusion vehicle (artificial cerebrospinal fluid) to enable measurement of proliferation by quantitation of BrdU incorporation in the DNA. Animals were sacrificed at 7 (proliferation) or 28 days (neurogenesis) after start of treatment and brains were dissected and prepared for sectioning and immunohistochemistry (Pencea V et al., J. Neurosci Sep. 1 (2001), 21(17):6706-17).
Proliferation was measured by BrdU incorporation and diaminobenzidine (DAB) staining of HRP conjugated secondary antibodies (FIG. 7). Cells were counted in a phase contrast microscope. Neural phenotype was assessed by staining for neuronal marker NeuN by immunocytochemistry using a fluorescence readout. The secondary antibodies were labeled with FITC or Alexa Fluor568. In double staining analyses designed to measure neurogenesis, BrdU and NeuN were quantitated by fluorescence (above) and counting of cells was done in a confocal microscope. For further experimental details, see Pencea V et al., J. Neurosci Sep. 1 (2001), 21(17):6706-17. A number of brain regions were analysed.

6-OHDA Lesioned Rats = assay: i.c.v. infusion in 6-OHDA lesioned rats, BrdU / NeuN labelling; type: in vivo, rat
Method: Animal handling and surgical procedures were carried out according to the ethical and regulatory permits set forth by Jordbruksverket and Lund University. Adult female Sprague-Dawley rats (B&K Universal AB) rats weighing 220-250 g, were housed in pairs with a 12 h light-dark cycle with free access to food and water. To lesion the substantia nigra, rats were fixed into a stereotaxic frame and 6-OHDA ([…] in 0.02% ascorbate saline, Sigma) was injected at a rate of 1 μl/min in 2 deposits of 2 and 2.5 μl into the right ascending mesostriatal forebrain bundle at the following coordinates: 4.4 mm caudal to bregma, 1.2 mm lateral to midline, 7.8 mm below dura; 4.0 mm caudal, 0.8 mm lateral, 8.0 mm below dura, respectively (Paxinos and Watson, 1998). Three weeks after 6-OHDA injections, the completeness of the lesion was assessed with the amphetamine-induced rotation test. D-methylamphetamine (2.5 mg, i.p.) was injected 5 min prior to placing the rat in an automated rotormeter bowl that measured the number of rotations over 90 min.
Before implantation, an Alzet Model 2002 osmotic minipump (200 μl; flow rate: 0.5 μl/h, 12 μl/day) was prefilled with 200 μl of compound solution (see below) and placed in a NaCl (0.9%) solution warmed in water bath (37° C.) 36 hrs before implantation. Rats were anesthetized with halothane in a mixture of nitrous oxide/oxygen (70:30) and maintained with 2-3% halothane. For implantation, rats were placed in a stereotaxic frame and the cannula of the Alzet Brain Infusion kit II was placed into the right lateral ventricle (coordinates: AP=−0.3 mm posterior bregma, L=1.5 mm lateral to satura sagittalis, 4.5 mm the dura; Paxinos and Watson, 1998), and secured to the skull with screws and dental cement. The minipump was then placed subcutaneously in the mid-scapular region. The scalp was treated with lidocaine gel before suturing. Twelve days after insertion, the rats were briefly anaesthetized with halothane in order to remove the pump. Removed pumps had the remaining solution volume and weight recorded.
The effects of infused PDGF-BB and BDNF following 6-OHDA lesions were investigated at 2 different time points: at 12 days or 5 weeks after minipump insertion. Rats receiving human PDGF-BB (order # 220-BB-050; 50 μg, R&D Systems) each had 36 ng/d of PDGF dissolved in 0.1 M PBS (3 μg/ml). Rats receiving human recombinant BDNF (order # 248-BD-025; 25 μg, R&D Systems) each had 12 ng/d of BDNF dissolved in 0.1 M PBS (1 μg/ml). BrdU was co-administered with the compound solution in the minipumps by dissolving it into the 0.1 M PBS medium. Control rats received only BrdU/PBS infusions.
Brain tissue was obtained by anesthetizing the rat and transcardially perfusing with 0.9% saline followed by 4% paraformaldehyde (PFA). Brains were stored PFA for 2 hours, then transferred to 20% sucrose PBS and sectioned coronally on a sledge microtome at 30 μm thickness. Free-floating sections were stored in Walter's antifreeze solution at 4° C. until staining.
Following blocking, incubation of monoclonal rat anti-BrdU antibody (Harlan Sera Lab, UK) in 2% blocking solution occurred at a dilution of 1:100 at 4° C. for 36 hrs. The sections were then incubated with biotin-horse-[…] antibody (1:200) (Vector, CA) in 2% blocking solution for 2 hr and visualized with DAB-NiCl Vectastain Elite kit. The procedure for doubling labeling of BrdU with NeuN or TH was similar, except that a monoclonal rat anti-BrdU antibody (1:100; Sigma, Sweden) was incubated either with a monoclonal mouse anti-NeuN antibody (1:100; Chemicon, USA) or with a monoclonal anti-TH antibody (1:1000; Pelfreeze) in the appropriate 2% blocking solution in the dark for 36 to 48 hrs. For immunofluorescent visualization, sections were incubation in secondary antibodies: Cy3-conjugated donkey anti-rat (1:200; Jackson ImmunoResearch, PA) for BrdU; a biotinylated horse anti-mouse antibody (1:200; BA2001, Vector, CA) for NeuN; and a FITC-conjugated goat anti-rat (1:200;) for TH. […]

B1: PDGF-BB: human recombinant PDGF-BB, platelet derived growth factor B-chain homodimer (protein)
chain: SLGSLTIAEPAMIAECKTRTEVFEISRRLIDRTNANFLVWPPCVEVQRCSGCCNNRNVQCRPTQVQLRPVQVRKIEIVRKKPIFKKATVTLEDHLACKCETVAAARPVT
B1 was tested, and the “Cell count (BrdU, proliferation) along the lateral ventricle wall” value (Healthy Rats; 7-day group, ICV infusion 7 days, 36 ng/day, mean of two sections, mean +/- sem) was 216 +/−25, the “number of proliferating cells in the subventricular zone” value (Healthy Rats; 28-day group) was “no such statistically significant effect” and the “neurogenesis in the striatum” value (Healthy Rats; 28-day group, in comparison to vehicle treated animals) was “significantly increase neurogenesis”. The “BrdU positive cells in the dentate gyrus, the CA1 and the alveus” value (Healthy Rats; 28-day group, in comparison to vehicle-treated animals) was “no significant effect”, the “BrdU positive cells in the striatum” value (Healthy Rats; 28-day group, cells counted in 300 × 300 μm squares) was 40 ± 6.8 (p < 0.01 to vehicle, ANOVA) and the “absolute number of BrdU/NeuN double labelled cells in the striatum” value (6-OHDA Lesioned Rats; 5 weeks, FIG. 15) was “significantly more neurons”. For the same molecule, the “numbers of BrdU labelled cells in the denervated striatum” value (6-OHDA Lesioned Rats; 12 days after infusion, compared to PBS infusion, PDGF 36 ng/d, BDNF 12 ng/d) was “significantly elevated”, the “numbers of BrdU labelled cells in the lesioned substantia nigra” value (6-OHDA Lesioned Rats; 12 days after infusion, compared to PBS treatment) was “significantly elevated” and the “BrdU cells in the striatum co-labelled with NeuN (proportion of newly generated neurons)” value (6-OHDA Lesioned Rats; Week 5, no statistically significant differences) was 20.9%.
